Laboratory results from patent US20150087577A1 (POLYPHOR, published 2015).
Bridges are numbered along the chain shown (N, C = ends). [ ]: non-standard residue; d: D form. Phe(4-F) = N[C@@H](Cc1ccc(F)cc1)C(=O)O; 2Nal = N[C@@H](Cc1ccc2ccccc2c1)C(=O)O; Cit = NC(=O)NCCC[C@H](N)C(=O)O; Dab = NCC[C@H](N)C(=O)O

Biological target: human CXCR4 (human, UniProt P61073 1-352)
Test: cell-based or functional assay

Chain of human CXCR4 (P61073 whole entry): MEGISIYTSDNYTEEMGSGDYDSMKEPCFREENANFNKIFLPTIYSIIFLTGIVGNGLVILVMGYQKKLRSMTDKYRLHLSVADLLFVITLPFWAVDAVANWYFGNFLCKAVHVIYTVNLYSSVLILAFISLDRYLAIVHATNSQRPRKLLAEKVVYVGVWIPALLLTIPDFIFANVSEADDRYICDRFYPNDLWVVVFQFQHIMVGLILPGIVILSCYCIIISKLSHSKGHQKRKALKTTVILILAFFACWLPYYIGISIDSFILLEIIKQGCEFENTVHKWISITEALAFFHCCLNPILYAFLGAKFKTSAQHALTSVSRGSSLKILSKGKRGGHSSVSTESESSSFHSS

Row | IC50 (nM) Ca2+ assay (method 2) | IC50 (nM) Ca2+ assay (method 1) | Binder
1 | 0.62 nM |  | cyclo(YH[Cit]CRG[dP]RRWCY[Cit]K[dP]P) (disulfide 4-11; SMILES N=C(N)NCCC[C@@H]1NC(=O)[C@@H]2CSSC[C@H](NC(=O)[C@H](Cc3c[nH]c4ccccc34)NC(=O)[C@H](CCCNC(=N)N)NC(=O)[C@H](CCCNC(=N)N)NC(=O)[C@H]3CCCN3C(=O)CNC1=O)C(=O)N[C@@H](Cc1ccc(O)cc1)C(=O)N[C@@H](CCCNC(N)=O)C(=O)N[C@@H](CCCCN)C(=O)N1CCC[C@@H]1C(=O)N1CCC[C@H]1C(=O)N[C@@H](Cc1ccc(O)cc1)C(=O)N[C@@H](Cc1c[nH]cn1)C(=O)N[C@@H](CCCNC(N)=O)C(=O)N2) [Example 105]
2 | 7.4 nM |  | cyclo(YRTCRG[dP][Dab]R[2Nal]CYQK[dP]P) (disulfide 4-11; SMILES C[C@@H](O)[C@@H]1NC(=O)[C@H](CCCNC(=N)N)NC(=O)[C@H](Cc2ccc(O)cc2)NC(=O)[C@@H]2CCCN2C(=O)[C@H]2CCCN2C(=O)[C@H](CCCCN)NC(=O)[C@H](CCC(N)=O)NC(=O)[C@H](Cc2ccc(O)cc2)NC(=O)[C@@H]2CSSC[C@H](NC1=O)C(=O)N[C@@H](CCCNC(=N)N)C(=O)NCC(=O)N1CCC[C@@H]1C(=O)N[C@@H](CCN)C(=O)N[C@@H](CCCNC(=N)N)C(=O)N[C@@H](Cc1ccc3ccccc3c1)C(=O)N2) [Example 104]
3 |  | 550 nM | cyclo(YR[Cit]FRV[dP]RR[2Nal]VY[Cit]K[dP]P) (SMILES CC(C)[C@@H]1NC(=O)[C@H](Cc2ccc3ccccc3c2)NC(=O)[C@H](CCCNC(=N)N)NC(=O)[C@H](CCCNC(=N)N)NC(=O)[C@H]2CCCN2C(=O)[C@H](C(C)C)NC(=O)[C@H](CCCNC(=N)N)NC(=O)[C@H](Cc2ccccc2)NC(=O)[C@H](CCCNC(N)=O)NC(=O)[C@H](CCCNC(=N)N)NC(=O)[C@H](Cc2ccc(O)cc2)NC(=O)[C@@H]2CCCN2C(=O)[C@H]2CCCN2C(=O)[C@H](CCCCN)NC(=O)[C@H](CCCNC(N)=O)NC(=O)[C@H](Cc2ccc(O)cc2)NC1=O) [Example 21]

More lines, now with the values behind:

Row | Binder | IC50 (nM) Ca2+ assay (method 2) | IC50 (nM) Ca2+ assay (method 1)
4 | cyclo(YRVCRG[dP]RR[2Nal]CYQK[dP]P) (disulfide 4-11; SMILES CC(C)[C@@H]1NC(=O)[C@H](CCCNC(=N)N)NC(=O)[C@H](Cc2ccc(O)cc2)NC(=O)[C@@H]2CCCN2C(=O)[C@H]2CCCN2C(=O)[C@H](CCCCN)NC(=O)[C@H](CCC(N)=O)NC(=O)[C@H](Cc2ccc(O)cc2)NC(=O)[C@@H]2CSSC[C@H](NC1=O)C(=O)N[C@@H](CCCNC(=N)N)C(=O)NCC(=O)N1CCC[C@@H]1C(=O)N[C@@H](CCCNC(=N)N)C(=O)N[C@@H](CCCNC(=N)N)C(=O)N[C@@H](Cc1ccc3ccccc3c1)C(=O)N2) [Example 98] | 3.9 nM | 
5 | cyclo(YRMCRG[dP]RR[2Nal]CYQK[dP]P) (disulfide 4-11; SMILES CSCC[C@@H]1NC(=O)[C@H](CCCNC(=N)N)NC(=O)[C@H](Cc2ccc(O)cc2)NC(=O)[C@@H]2CCCN2C(=O)[C@H]2CCCN2C(=O)[C@H](CCCCN)NC(=O)[C@H](CCC(N)=O)NC(=O)[C@H](Cc2ccc(O)cc2)NC(=O)[C@@H]2CSSC[C@H](NC1=O)C(=O)N[C@@H](CCCNC(=N)N)C(=O)NCC(=O)N1CCC[C@@H]1C(=O)N[C@@H](CCCNC(=N)N)C(=O)N[C@@H](CCCNC(=N)N)C(=O)N[C@@H](Cc1ccc3ccccc3c1)C(=O)N2) [Example 100] | 7 nM | 
6 | cyclo(YR[Phe(4-F)]CRG[dP]RR[2Nal]CYQK[dP]P) (disulfide 4-11; SMILES N=C(N)NCCC[C@@H]1NC(=O)[C@@H]2CSSC[C@H](NC(=O)[C@H](Cc3ccc4ccccc4c3)NC(=O)[C@H](CCCNC(=N)N)NC(=O)[C@H](CCCNC(=N)N)NC(=O)[C@H]3CCCN3C(=O)CNC1=O)C(=O)N[C@@H](Cc1ccc(O)cc1)C(=O)N[C@@H](CCC(N)=O)C(=O)N[C@@H](CCCCN)C(=O)N1CCC[C@@H]1C(=O)N1CCC[C@H]1C(=O)N[C@@H](Cc1ccc(O)cc1)C(=O)N[C@@H](CCCNC(=N)N)C(=O)N[C@@H](Cc1ccc(F)cc1)C(=O)N2) [Example 99] | 4.2 nM | 
7 | cyclo(YR[Cit]CSG[dP]RR[2Nal]CYQK[dP]P) (disulfide 4-11; SMILES N=C(N)NCCC[C@@H]1NC(=O)[C@H](CCCNC(=N)N)NC(=O)[C@H]2CCCN2C(=O)CNC(=O)[C@H](CO)NC(=O)[C@@H]2CSSC[C@H](NC(=O)[C@H](Cc3ccc4ccccc4c3)NC1=O)C(=O)N[C@@H](Cc1ccc(O)cc1)C(=O)N[C@@H](CCC(N)=O)C(=O)N[C@@H](CCCCN)C(=O)N1CCC[C@@H]1C(=O)N1CCC[C@H]1C(=O)N[C@@H](Cc1ccc(O)cc1)C(=O)N[C@@H](CCCNC(=N)N)C(=O)N[C@@H](CCCNC(N)=O)C(=O)N2) [Example 101] | 1.28 nM | 
8 | cyclo(YR[Cit]CRG[dP]RR[2Nal]CY[Cit]E[dP]P) (disulfide 4-11; SMILES N=C(N)NCCC[C@@H]1NC(=O)[C@@H]2CSSC[C@H](NC(=O)[C@H](Cc3ccc4ccccc4c3)NC(=O)[C@H](CCCNC(=N)N)NC(=O)[C@H](CCCNC(=N)N)NC(=O)[C@H]3CCCN3C(=O)CNC1=O)C(=O)N[C@@H](Cc1ccc(O)cc1)C(=O)N[C@@H](CCCNC(N)=O)C(=O)N[C@@H](CCC(=O)O)C(=O)N1CCC[C@@H]1C(=O)N1CCC[C@H]1C(=O)N[C@@H](Cc1ccc(O)cc1)C(=O)N[C@@H](CCCNC(=N)N)C(=O)N[C@@H](CCCNC(N)=O)C(=O)N2) [Example 103] | 18.3 nM | 
9 | cyclo(YK[Cit]CRG[dP]RRWCY[Cit]K[dP]P) (disulfide 4-11; SMILES N=C(N)NCCC[C@@H]1NC(=O)[C@@H]2CSSC[C@H](NC(=O)[C@H](Cc3c[nH]c4ccccc34)NC(=O)[C@H](CCCNC(=N)N)NC(=O)[C@H](CCCNC(=N)N)NC(=O)[C@H]3CCCN3C(=O)CNC1=O)C(=O)N[C@@H](Cc1ccc(O)cc1)C(=O)N[C@@H](CCCNC(N)=O)C(=O)N[C@@H](CCCCN)C(=O)N1CCC[C@@H]1C(=O)N1CCC[C@H]1C(=O)N[C@@H](Cc1ccc(O)cc1)C(=O)N[C@@H](CCCCN)C(=O)N[C@@H](CCCNC(N)=O)C(=O)N2) [Example 106] | 3.1 nM | 
10 | cyclo(YRSCRG[dP]RRWCY[Cit]D[dP]P) (disulfide 4-11; SMILES N=C(N)NCCC[C@@H]1NC(=O)[C@@H]2CSSC[C@H](NC(=O)[C@H](Cc3c[nH]c4ccccc34)NC(=O)[C@H](CCCNC(=N)N)NC(=O)[C@H](CCCNC(=N)N)NC(=O)[C@H]3CCCN3C(=O)CNC1=O)C(=O)N[C@@H](Cc1ccc(O)cc1)C(=O)N[C@@H](CCCNC(N)=O)C(=O)N[C@@H](CC(=O)O)C(=O)N1CCC[C@@H]1C(=O)N1CCC[C@H]1C(=O)N[C@@H](Cc1ccc(O)cc1)C(=O)N[C@@H](CCCNC(=N)N)C(=O)N[C@@H](CO)C(=O)N2) [Example 102] | 8 nM | 
